The data set concerns the molecule itself. As to the kind of experiment: negative-stain transmission electron microscopy; protein incubated with unilamellar liposomes (1:1 POPC/chol), stained with 1% w/v uranyl acetate on a copper grid; membrane-bound oligomeric structures visualised.

Residue numbers refer to the chain shown, from its start. Numbers in names are those of the source.

B1: pneumolysin point mutant D205R (natural protein, Streptococcus pneumoniae, UniProt Q04IN8 1-471, looked up)
chain: MANKAVNDFILAMNYDKKKLLTHQGESIENRFIKEGNQLPDEFVVIERKKRSLSTNTSDISVTATNDSRLYPGALLVVDETLLENNPTLLAVDRAPMTYSIDLPGLASSDSFLQVEDPSNSSVRGAVNDLLAKWHQDYGQVNNVPARMQYEKITAHSMEQLKVKFGSDFEKTGNSLDIDFNSVHSGEKQIQIVNFKQIYYTVSVRAVKNPGDVFQDTVTVEDLKQRGISAERPLVYISSVAYGRQVYLKLETTSKSDEVEAAFEALIKGVKVAPQTEWKQILDNTEVKAVILGGDPSSGARVVTGKVDMVEDLIQEGSRFTADHPGLPISYTTSFLRDNVVATFQNSTDYVETKVTAYRNGDLLLDHSGAYVAQYYITWDELSYDHQGKEVLTPKAWDRNGQDLTAHFTTSIPLKGNVRNLSVKIRECTGLAWEWWRTVYEKTDLPLVRKRTISIWGTTLYPQVEDKVEND
notes: pneumolysin (PLY), Streptococcus pneumoniae, with D205R in domain 1; also called PLY D205R; source: purified
On to B1, for which the binding result was “binds”.

B2: pneumolysin point mutant T304R (natural protein, Streptococcus pneumoniae, UniProt Q04IN8 1-471, looked up)
chain: B1 chain with R205D, T304R
notes: pneumolysin (PLY), Streptococcus pneumoniae, with T304R in domain 3; also called PLY T304R; source: purified
Consider B2, for which the binding result is recorded as “binds”.

(Values after PMC7067851, “Formation of pre-pore complexes of pneumolysin is accompanied by a decrease in short-range order of lipid molecules throughout vesicle bilayers” (Scientific Reports, 2020).)
